Where no end group is shown, it is not given here. [ ]: non-standard residue; d: D form. pS = N[C@@H](COP(=O)(O)O)C(=O)O
Assays:
[1] = target: T1, calcineurin-A-beta2/calcineurin-B (human, UniProt P16298 2-524; P63098 1-170); experiment: laser fluorescence correlation spectroscopy (FCS)
T1 construct: also called CNAb2-pQE30 product

[2] = target: T2, calcineurin-A-beta1/calcineurin-B (human, UniProt P16298 2-524; P63098 1-170); experiment: laser fluorescence correlation spectroscopy (FCS)
T2 construct: also called CNAb1-pQE30 product

B1: RII-Fluophos (peptide)
peptide: DLDVPIPGRFDRRV[pS](fluorescein)VAAE
notes: Synthetic peptide; It was not converted by calcineurin; also called Fluophos-RII-peptide; fluorescent labeled RII-peptide
binding result [1]: binds | binding result [2]: binds
